One data set addresses eIF4A1 Phe163His (Homo sapiens, UniProt P60842 1-406, F163H). The data set can be described thus: fluorescence polarization; 1 mM AMP-PNP, DMSO; 20 mM HEPES-NaOH pH 7.5, 150 mM NaCl, 1 mM MgCl2, 1 mM DTT, 5% glycerol, 1% DMSO, 10 nM FAM-RNA, 0-25 uM protein (source data up to 50), 1 mM AMP-PNP or 1 mM ADP + 1 mM Na2HPO4, room temperature 30 min; Hill fit, n = 3. The conditions noted are these: protein: recombinant; tags: His; single strand.

The next data set deals with eIF4A1 Phe163Gly (Homo sapiens, UniProt P60842 1-406, F163G). The data set is described as above. The conditions noted are these: protein: recombinant; tags: His; single strand.

In general, Kd refers to the concentration at which binding is half-saturated.

eIF4A1 Phe163Gly, sequence (P60842 whole entry F163G): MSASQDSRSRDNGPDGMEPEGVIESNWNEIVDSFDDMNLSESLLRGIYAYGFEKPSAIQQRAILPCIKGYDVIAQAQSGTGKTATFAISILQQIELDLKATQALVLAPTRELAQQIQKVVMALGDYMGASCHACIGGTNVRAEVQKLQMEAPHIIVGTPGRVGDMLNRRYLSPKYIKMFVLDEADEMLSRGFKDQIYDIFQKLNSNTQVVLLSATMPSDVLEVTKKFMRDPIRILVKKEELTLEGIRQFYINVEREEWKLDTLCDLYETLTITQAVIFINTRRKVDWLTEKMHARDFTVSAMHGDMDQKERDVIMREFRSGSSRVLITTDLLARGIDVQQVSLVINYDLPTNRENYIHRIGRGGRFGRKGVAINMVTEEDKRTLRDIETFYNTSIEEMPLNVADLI
eIF4A1 Phe163His, sequence (P60842 whole entry F163H): as the sequence (P60842 whole entry F163G) above, with G163H counted along it

For AGAGAGAGAGAGAGAGAGAG (ssRNA) [[AG]10 polypurine RNA], the values for the Kd in the data set with eIF4A1 Phe163His and in the data set with eIF4A1 Phe163Gly were 16 ± 2.7 µM and 21 ± 6.7 µM, respectively.

The values are drawn from PMC9977294, “A parasitic fungus employs mutated eIF4A to survive on rocaglate-synthesizing Aglaia plants”.
